Assay results as given in article PMC12087662.

Target: ATP6V1D (UniProt Q9Y5K8)
Test: in vitro binding, anti-Flag pull-down
Conditions: reference: wild-type ATP6V1B2-Flag; sites Y68

## ATP6V1B2 (from UniProt P21281) ATP6V1B2(Y68F)-Flag
  binding against the reference: weaker
